Assay results as given in the DeepSol protein solubility set.

assay: soluble on expression in E. coli; label from the status in PepcDB or PDB records

Soluble on expression in E. coli, not soluble:
MGSDKIHHHHHHMTAFNPIAIIPHYNHSATVGSVAEQLNQLGLPVLIVDDGSSLEHKAVIEQFPQNEQLSILFCEINGGKGAAFKAGLKQTQKLGFSHAIQVDADGQHNIIDVKKMLEQAEKSPNAIVCGKPIYGKDAPKSRLYGRKITDFWNAINTLSFDIKDGMCGFRIYPIAQIMPILAQEQIGGGMDFDTEILIHSYWQKIPLIWVDTPVKYEKDGISHFRGWADNWLISKMHARLFFRMLKRLFTGKIR
MGSDKIHHHHHHMTANPTVFTFADSTDLILEIPDSTTANLDSQLFSHPYSRYQAYLNELCLSAVLPWLQEDFSTQAKVWPSATTLASLWELVNGTAVTIDGKRFILVPSENIDHSELRVQQEWVDLPTWAGDYYLAVQVDGEYVKVWGYCTHTQLKHQGKYDPGDRTYSLDITDIVNDISVLAVARDLCPDEITRTAIAPLPTIPQEQAQNLITRLSNPEIINPRLAIPFQLWGALIEHGGWRQSLYERRLGLPEQRSVLQWLQSGVSQVAQTMGWGRLNLQLSAAGARSVEERQTGVTLSRRLTIAGQLYELLITPQGEPDAPYWRFELRNAAVGAVIPGGFKLRLLTEDLQSFPNNEDIATNAVEQLYVEVALEAGEGIVWEIEPLPENYDREILKF
MGSDKIHHHHHHMTDTTIPNPLAPVKGANTTFWMYNSEGDPFASPLSDNNWLRLANVKDLQPGELTADAEDNNYLDDENADWKSTTQGQKSAGDTSVTLAWKPGEDVQKKLIQLFTTGQKRGFRIKYPNGTVDVFRGWVSSLGKTVQSKDEIARTVKITSVGRPYMAEEDAPEVVSVTGLTVEPTNATVKVGATTAVTFTVKPDNVTDKSLRIATSDPTTATVTQAENIATVKGVKAGTVKIIGMTTDGNFTAIADITVQA
MGSDKIHHHHHHMTEEINYFWLNCGYNRWNHNEPLVGQTALFESGAHFNPTQGYRAFKKAKAGDQVIFYQVQTDSGLLGIGEIISVQSGAQNKIRVEFKFKETLKPLTTDYLKRSETLDFRMSNMRETLFNQIRESEFELIVSLGKGKSKIPRYFLLAETEAFEPGKNYTIFTHTFNGIKRNGYHFYTQLEVGDNIIIYNKYQNQSVIGIGEVSKHIHEKPPIPGRTNSTAIEIFYEKDIKPISLGHLNKHPKLKNLYFLQENAKQSIASMSQAQYDAILDMSMNNGIKHPFETVKKAELSTQNAEDDSLKPFVLLVVEQKGEGLKAAEELLQKTNANPVITSGHPDFTEDMLYGKYLPNESGALYYREGFITHLMPKKDKSYLVIDNFNRIDVDIFQTYINVLEGYEVTLPRYNKDGSMIKWSKNKDSFYHFNPNWHIVGITYDSIEKIKQKYSSQFLKYTRIVKVNHD
MGSDKIHHHHHHMTEILLKELTKSDIDWMITTGNQQELAAGTILIQERGSTEFFHILLDGTFSVTLSQPENNPLTRAFAAIEGEEISGREIGRLSRGEIVGESPLIGTRPPATTITSVEKSLVISIPIRELAAKLQQDVGFAARFYRAIAIIISNRIENTIDQLGRRNLAQSQPLRDVLFILGELHDSDIDWMMASGTPQKIPANTILIHEQGTVDALYILLDGKMSLSISLDERNPLVRAFAAIEGNEISGREIAKLSKGEIIGETPFIDGSLPPTTVKAIEHSVVLSIPRQQLAAKLQQDIGFASRFYRVIASLLDQRLQPMVSQLGYGRRVYSRGESLHEGLEYDDELDINTLDRMAIAGKRFDWMLERLKVS
MGSDKIHHHHHHMTENFWRELPRPFFVLAPMEDVTDVVFRHVVSEAGRPDVFFTEFTNSESYCHPDGKDSVRGRLTFTEDEQPIVAHIWGDKPENFRKMSIGMAELGFKGLDINMGCPVPNVAGNGKGSGLICRPAVAAELIQAAKAGGLPVSVKTRLGYTDVDEWREWLTHILKQDIANLSIHLRTRAEMSKVDAHWELIPEIKKLRDEVAPDTLLTINGDIPDRQTGLKLAEQYGVDGIMIGRGIFTNPFAFEKEPKEHSSKELLDLLRLHLDLHDEYSKEEARPYKPLPRFFKIYLRGFRGASELRNQCMNTKSTDEVRALLDDFERKYLDGIE
MGSDKIHHHHHHMTEPTRHQEHETETQEADLPNVCVVTHPLAAAGENATRSLLDILSAITSVALVTADLPADSEIRDRHELVELTQKGAGDSVVIAAFRFLLNQLRMCRVIAGRDEDVVLFFGATSYLLPIVVTRLLGKTVLVEPRGDVPLTLRLNWEQQLPDQVAAVLAGAVRALERAGFAVAHGVITYTPEMARQLDLHPESPSVYPTGARYVRTNEFCVQRPYADRDRVVGFLGRLDEEKGVRELAAVATQLPDDITFRFVGDGDLREWLEEDLAADIEAGHVELTGWVDHDKVPHALNDLELLILPSQPTEGLPTTILEALACGTPVYASPVSGVPDVVRDEETGFTIDSRESTALAAGIERILDRNDLAAISENGRTLIEREYSFDAACERYRGILRSVAGYSS
MGSDKIHHHHHHMTERFQQKNISVPDGIWIMKQTWNDVLFAHWPVDVSILRALVPSVLELDTYNGQAWISMLPFMLTNLRARYLPVIPGARAFPELNLRTYVTYKGKPGIYFFSLDADHRLAVLGARTFFHLPYFYADMKSEKNGDAIDYVSKRKNDKEAAFHAAYRPISAPFTAEKDSLDYWLTDDTGSTPLIAISSITKTSIIIRGCCKTPKQKFQSIR
MGSDKIHHHHHHMTGLLSKHDFRVALQEAIAGKASAKAAFSQAWMDGTLQRHHFARWAENHYHYVGPFADYLGYIYNNARDEQDGVKDLLLQSMYEFRHLQEGEAMVSHTDLLIRFAQACGTTRERVESPQACNPITRGMQAWCYATAIRESPVVATAALLVGLASQIPQIYARQIVPLRDPRVYGFSEHEVAFFALRITSDGAHAERGYRIVLDGATTPALQQRCLQFVRWGAEMRYAYAQAIYDQYVAPDLGARRVD
MGSDKIHHHHHHMTGQNPAPDEIVIDTGNPHPARMYDWFLGGKDNYPVDEEMGRQLLALDPRVPVMAKVNRAFMHRATRWLAMNGVRQFLDIGTGIPTEPNLHQIAQQVAPESRVVYCDNDPIVLAHAAALLRSTPEGVTEYVQADVRDPDTIVEQAGKVLDFSKPVALSLVALLHFVSDEDGAYELVDRLLAEVPSGSYLMLSHATADFTPKKSEEAGELYKARSLTLALRSRDEVARFFRDLELVEPGVEVPDKWRPELGEPVPGQDDEPIPGYAAVGRKP
MGSDKIHHHHHHMTGRVVTVFGGSGSIGRQLVALLADQGARVRVAVRDTEKAHFLKPLGQLGQIAPISASVSDAASVKRAVEGADQVVNLVGILAESGRRTFQAVHVDGAATVARASAEAGVDALIHMSALGADEASDANYSKTKALGEKAVREAFPAATILRPSVVFGPDDGFFNLFAGLQRLSPVLPYFTRDGFRRGGSGVCGIDLAGSGGPKFQPVYVGDVARAMIAILDTPALRGKTYELGGPRVYSMKEIMDLVVAVTRRRTLVVPLPFWVARLQGRLLEKLPNPPLTSDQVRLMEVDNVCSGALPGLGDLGIEPEAAEAILPTYLSRFRGLDRHMILRGDGRPPKV
MGSDKIHHHHHHMTGTESGASGGQPANSDDWDAVTARREAEALIIDVDGFEGPLDLLLTLSRTQKVDLRRISILALTEQYLVFIEKARQLRIELAADYLVMAAWLAFLKSKLLLPPEPGEEGPSGEDLAAHLAFQLERLAAMRDCAARLMAQDRLGRDRFVRGQTQAMTTNRKVIYTAGLLDLMQAYARIRTKDEFRPFVMDREAVLTMEEALDRLRGMVGYMGDWADLMSYLPDGWTTDPAKRRSAAAANFAAALELAKAGRVEIRQADTFSPIQLRRKEP
MGSDKIHHHHHHMTIDLTPYLPSQGPKYLAIARALAEAIRQGELTPGTRLPPHRCLADALAVSVQTVSRAYAQAEKMGLVQARVGSGTWINTLDDSQEAEYLRSADLPTEGAPVDLSIAHPVCPPGHHLRFRETLREVADSAHPDAIDACRPIAGLAHQRERASHWLQETLGVPGTPDDRVLCNGAAHGVMLAIATLVQHGDVVLTEALTDHGLIALSRTLGLQLRGVAIDEQGVIPEALDAACRRYHPRAVCLTPTQHNPTGATMDADRRDAIAEVLARHGTWLIEDDTHALLEPPGLTPLTARLPRQSFHVTSLTKATVPGLRAGYLSVPRGQLHHTLPRLRATSWMATPLIFEIADRWLADGSVEALAEEQRQLLAERQQLTRSRLQGHVMASRPTGLHVWLALPRAWRAEELQQQALREGLAIATAQPFMVGQGAPPQRVRLSLGAENDLERFDQGLTILARLLGEAPPPMLQNV
